In patent US20220185895A1:
Values belong to the substance of their own block, whether it stands above or below them.

Columns and labels:
[1] = target: human CD94 (Natural killer cells antigen CD94) (human) (UniProt Q13241); assay: flow cytometry, healthy donor PBL, CD3+CD8+ T cells
[2] = target: human CD94 (Natural killer cells antigen CD94) (human) (UniProt Q13241); assay: flow cytometry, normal liver, CD45+CD3+CD4+ T cells
[3] = target: human CD94 (Natural killer cells antigen CD94) (human) (UniProt Q13241); assay: flow cytometry, normal liver, CD45+CD3+CD8+ T cells
[4] = target: human CD94 (Natural killer cells antigen CD94) (human) (UniProt Q13241); assay: flow cytometry, CLPD-NK patient PBMC, CD3+CD16+ T-LGL
[5] = target: human CD94 (Natural killer cells antigen CD94) (human) (UniProt Q13241); assay: flow cytometry, CD94dim T-LGLL patient PBMC, CD3+CD16- T lymphocytes [Cont.]
[6] = target: human CD94 (Natural killer cells antigen CD94) (human) (UniProt Q13241); assay: flow cytometry, CD94bright T-LGLL patient PBMC, CD3+CD16- T lymphocytes [Cont.]
[7] = target: human CD94 (Natural killer cells antigen CD94) (human) (UniProt Q13241); assay: flow cytometry with APC MESF bead calibration, healthy donor PBL, CD3+CD8+ T cells
[8] = target: human CD94 (Natural killer cells antigen CD94) (human) (UniProt Q13241); assay: flow cytometry with APC MESF bead calibration, normal liver, CD45+CD3+CD4+ T cells
[9] = target: human CD94 (Natural killer cells antigen CD94) (human) (UniProt Q13241); assay: flow cytometry with APC MESF bead calibration, normal liver, CD45+CD3+CD8+ T cells
[10] = target: human CD94 (Natural killer cells antigen CD94) (human) (UniProt Q13241); assay: flow cytometry with APC MESF bead calibration, CLPD-NK patient PBMC, CD3+CD16+ T-LGL
[11] = target: human CD94 (Natural killer cells antigen CD94) (human) (UniProt Q13241); assay: flow cytometry with APC MESF bead calibration, CLPD-NK patient PBMC, CD3+CD8+ T cells
[12] = target: human CD94 (Natural killer cells antigen CD94) (human) (UniProt Q13241); assay: flow cytometry with APC MESF bead calibration, healthy donor PBL, CD3-/CD16+ NK cells
[13] = target: human CD94 (Natural killer cells antigen CD94) (human) (UniProt Q13241); assay: flow cytometry with APC MESF bead calibration, healthy donor PBL, CD3-/CD56+ NK cells
[14] = target: human CD94 (Natural killer cells antigen CD94) (human) (UniProt Q13241); assay: flow cytometry with APC MESF bead calibration, healthy donor PBL, CD3-/CD57+ NK cells
[15] = target: human CD94 (Natural killer cells antigen CD94) (human) (UniProt Q13241); assay: flow cytometry with APC MESF bead calibration, average over healthy donor PBMC, CD3-CD16+ NK cells
[16] = target: human CD94 (Natural killer cells antigen CD94) (human) (UniProt Q13241); assay: flow cytometry with APC MESF bead calibration, average over healthy donor PBMC, CD3-CD56+ NK cells
[17] = target: human CD94 (Natural killer cells antigen CD94) (human) (UniProt Q13241); assay: flow cytometry with APC MESF bead calibration, average over healthy donor PBMC, CD3-CD57+ NK cells
[18] = target: human CD94 (Natural killer cells antigen CD94) (human) (UniProt Q13241); assay: flow cytometry with APC MESF bead calibration, normal liver, NK cells (panel headed CD45+CD3+CD56+)
[19] = target: human CD94 (Natural killer cells antigen CD94) (human) (UniProt Q13241); assay: flow cytometry with APC MESF bead calibration, CD94dim T-LGLL patient PBMC, CD3-CD16+ NK cells [Cont.]
[20] = target: human CD94 (Natural killer cells antigen CD94) (human) (UniProt Q13241); assay: flow cytometry with APC MESF bead calibration, average over healthy donor PBMC, CD3+CD8+ (CD94+) T cells
[21] = target: human CD94 (Natural killer cells antigen CD94) (human) (UniProt Q13241); assay: flow cytometry with APC MESF bead calibration, CD94bright T-LGLL patient PBMC, CD3-CD16+ NK cells [Cont.]
[22] = target: human CD94 (Natural killer cells antigen CD94) (human) (UniProt Q13241); assay: flow cytometry with APC MESF bead calibration, CD94dim T-LGLL patient PBMC, CD3+CD16- T lymphocytes [Cont.]
[23] = target: human CD94 (Natural killer cells antigen CD94) (human) (UniProt Q13241); assay: flow cytometry with APC MESF bead calibration, CD94bright T-LGLL patient PBMC, CD3+CD16- T lymphocytes [Cont.]
[24] = target: human CD94 (Natural killer cells antigen CD94) (human) (UniProt Q13241); assay: flow cytometry with APC MESF bead calibration, CD94bright T-LGLL patient PBMC, CD3+CD16+ leukemic cells [Cont.]
[25] = target: human NKG2A (NKG2-A/NKG2-B type II integral membrane protein) (human) (UniProt P26715); assay: cell-based or functional assay
Sequence of UniProt P26715 (P26715 whole entry): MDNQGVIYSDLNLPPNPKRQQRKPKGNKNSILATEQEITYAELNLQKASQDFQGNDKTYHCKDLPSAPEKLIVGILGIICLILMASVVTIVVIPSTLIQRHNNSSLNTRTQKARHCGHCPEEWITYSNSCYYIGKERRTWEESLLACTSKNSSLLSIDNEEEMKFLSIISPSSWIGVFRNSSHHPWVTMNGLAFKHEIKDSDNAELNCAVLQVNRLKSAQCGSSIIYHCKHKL

Sequence of UniProt Q13241 (Q13241 whole entry): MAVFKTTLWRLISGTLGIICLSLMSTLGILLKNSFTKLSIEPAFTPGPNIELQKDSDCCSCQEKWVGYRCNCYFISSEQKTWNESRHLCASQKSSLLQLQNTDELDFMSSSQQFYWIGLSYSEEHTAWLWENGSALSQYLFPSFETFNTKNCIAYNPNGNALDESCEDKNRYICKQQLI

Substance: anti-CD94 antibody clone HP-3D9, APC-conjugated (BD Bioscience 559876)
% positive cells [1]: 30% | % positive cells [2]: 13% | % positive cells [3]: 25% | % positive cells [4]: 16% | % positive cells [5]: 14% | % positive cells [6]: 31% | CD94 receptor number (receptors per cell) [7]: 28000 | CD94 receptor number (receptors per cell) [8]: 55000 | CD94 receptor number (receptors per cell) [9]: 97000 | CD94 receptor number (receptors per cell) [10]: 51000 | CD94 receptor number (receptors per cell) [11]: 28000 | CD94 receptor number (receptors per cell) [12]: 45000 | CD94 receptor number (receptors per cell) [13]: 51000 | CD94 receptor number (receptors per cell) [14]: 39000 | Antibody binding capacity (receptors per cell) [15]: 77000 | Antibody binding capacity (receptors per cell) [16]: 117000 | Antibody binding capacity (receptors per cell) [17]: 73000 | CD94 receptor number (receptors per cell) [18]: 195000 | CD94 receptor number (receptors per cell) [19]: 14000 | Antibody binding capacity (receptors per cell) [20]: 45000 | CD94 receptor number (receptors per cell) [21]: 51000 | CD94 receptor number (receptors per cell) [22]: 33000 | CD94 receptor number (receptors per cell) [23]: 172000 | CD94 receptor number (receptors per cell) [24]: 177000

ADCC assay, depletion of CD3-CD56bright NK cells in fresh healthy donor PBMCs, EC50 [25]: 40 ng/mL
Substance: anti-NKG2A Z199 fucosylated antibody

ADCC assay, depletion of CD3-CD16+ NK leukemic cells in frozen CLPD-NK patient PBMCs, EC50 [25]: 3 ng/mL | ADCC assay, depletion of CD3-CD56bright NK cells in fresh healthy donor PBMCs, EC50 [25]: 3 ng/mL | ADCC assay, potency against the fucosylated Z199 antibody [25]: 13 times
Substance: anti-NKG2A Z199 non-fucosylated antibody
